Laboratory results as given in PMC8928223, “The Collagen Receptor Discoidin Domain Receptor 1b Enhances Integrin β1-Mediated Cell Migration by Interacting With Talin and Promoting Rac1 Activation” (Frontiers in Cell and Developmental Biology, 2022).

T1: talin head domain (THD, a. a. 1-433), HIS-tagged (UniProt P26039 1-433)
T1 chain: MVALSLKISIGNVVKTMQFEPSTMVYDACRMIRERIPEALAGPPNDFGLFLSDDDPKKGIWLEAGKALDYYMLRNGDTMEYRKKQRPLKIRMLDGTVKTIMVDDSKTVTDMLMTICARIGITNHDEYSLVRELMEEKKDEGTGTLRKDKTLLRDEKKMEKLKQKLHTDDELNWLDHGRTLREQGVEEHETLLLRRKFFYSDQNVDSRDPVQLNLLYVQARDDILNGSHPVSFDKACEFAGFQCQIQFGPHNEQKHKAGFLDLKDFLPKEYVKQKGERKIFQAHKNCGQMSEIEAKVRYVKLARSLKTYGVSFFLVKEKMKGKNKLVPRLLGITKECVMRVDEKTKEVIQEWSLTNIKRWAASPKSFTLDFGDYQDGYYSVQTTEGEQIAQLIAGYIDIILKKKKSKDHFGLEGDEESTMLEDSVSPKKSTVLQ


Legend:
[1] = target: T1, talin head domain (THD, a. a. 1-433), …; assay: ELISA
[2] = target: T2, DDR1b-Turbo containing a Flag tag (human, UniProt Q08345-1 19-913); assay: proximity labelling; BioID with turbo-Flag fused to DDR1 in HEK cells plated on collagen I (30 µg/ml) for 1-3 h with 50 µM biotin; streptavidin-agarose pull-down of the lysate and Western blot; settings: partners not purified
T2 construct: Discoidin domain receptor 1, isoform DDR1b, human, fused to the biotin ligase turbo-Flag as bait for BioID; construct described in Borza et al., 2021; source: HEK 293, stably transfected, in live cells and lysate

Kd [1] | fold increase in biotinylated BCR against DDR1a-expressing cells [2] | Binder
220 nM | – | DDR1a cytoplasmic domain (domain or fragment) WRLHWRRLLSKAERRVLEEELTVHLSVPGDTILINNRPGPREPPPYQEPRPRGNPPHSAPCVPNGSAYSGDYMEPEKPGAPLLPPPPQNSVPHYAEADIVTLQGVTGGNTYAVPALPPGAVGDGPPRVDFPRSRLRFKEKLGEGQFGEVHLCEVDSPQDLVSLDFPLNVRKGHPLLVAVKILRPDATKNARNDFLKEVKIMSRLKDPNIIRLLGVCVQDDPLCMITDYMENGDLNQFLSAHQLEDKAAEGAPGDGQAAQGPTISYPMLLHVAAQIASGMRYLATLNFVHRDLATRNCLVGENFTIKIADFGMSRNLYAGDYYRVQGRAVLPIRWMAWECILMGKFTTASDVWAFGVTLWEVLMLCRAQPFGQLTDEQVIENAGEFFRDQGRQVYLSRPPACPQGLYELMLRCWSRESEQRPPFSQLHRFLAEDALNTV
– | 2.92 ± 1.42 fold | Breakpoint cluster region protein (BCR) (natural protein, human (endogenous in HEK 293), UniProt P11274 1-1271, looked up, biotinylated by the turbo ligase in cells, Breakpoint cluster region protein, in HEK 293 cells, detected with an anti-BCR antibody after streptavidin pull-down; source: endogenous, HEK 293 cells, in lysate) MVDPVGFAEAWKAQFPDSEPPRMELRSVGDIEQELERCKASIRRLEQEVNQERFRMIYLQTLLAKEKKSYDRQRWGFRRAAQAPDGASEPRASASRPQPAPADGADPPPAEEPEARPDGEGSPGKARPGTARRPGAAASGERDDRGPPASVAALRSNFERIRKGHGQPGADAEKPFYVNVEFHHERGLVKVNDKEVSDRISSLGSQAMQMERKKSQHGAGSSVGDASRPPYRGRSSESSCGVDGDYEDAELNPRFLKDNLIDANGGSRPPWPPLEYQPYQSIYVGGMMEGEGKGPLLRSQSTSEQEKRLTWPRRSYSPRSFEDCGGGYTPDCSSNENLTSSEEDFSSGQSSRVSPSPTTYRMFRDKSRSPSQNSQQSFDSSSPPTPQCHKRHRHCPVVVSEATIVGVRKTGQIWPNDGEGAFHGDADGSFGTPPGYGCAADRAEEQRRHQDGLPYIDDSPSSSPHLSSKGRGSRDALVSGALESTKASELDLEKGLEMRKWVLSGILASEETYLSHLEALLLPMKPLKAAATTSQPVLTSQQIETIFFKVPELYEIHKEFYDGLFPRVQQWSHQQRVGDLFQKLASQLGVYRAFVDNYGVAMEMAEKCCQANAQFAEISENLRARSNKDAKDPTTKNSLETLLYKPVDRVTRSTLVLHDLLKHTPASHPDHPLLQDALRISQNFLSSINEEITPRRQSMTVKKGEHRQLLKDSFMVELVEGARKLRHVFLFTDLLLCTKLKKQSGGKTQQYDCKWYIPLTDLSFQMVDELEAVPNIPLVPDEELDALKIKISQIKNDIQREKRANKGSKATERLKKKLSEQESLLLLMSPSMAFRVHSRNGKSYTFLISSDYERAEWRENIREQQKKCFRSFSLTSVELQMLTNSCVKLQTVHSIPLTINKEDDESPGLYGFLNVIVHSATGFKQSSNLYCTLEVDSFGYFVNKAKTRVYRDTAEPNWNEEFEIELEGSQTLRILCYEKCYNKTKIPKEDGESTDRLMGKGQVQLDPQALQDRDWQRTVIAMNGIEVKLSVKFNSREFSLKRMPSRKQTGVFGVKIAVVTKRERSKVPYIVRQCVEEIERRGMEEVGIYRVSGVATDIQALKAAFDVNNKDVSVMMSEMDVNAIAGTLKLYFRELPEPLFTDEFYPNFAEGIALSDPVAKESCMLNLLLSLPEANLLTFLFLLDHLKRVAEKEAVNKMSLHNLATVFGPTLLRPSEKESKLPANPSQPITMTDSWSLEVMSQVQVLLYFLQLEAIPAPDSKRQSILFSTEV
96.5 nM | – | DDR1b cytoplasmic domain (domain or fragment) WRLHWRRLLSKAERRVLEEELTVHLSVPGDTILINNRPGPREPPPYQEPRPRGNPPHSAPCVPNGSALLLSNPAYRLLLATYARPPRGPGPPTPAWAKPTNTQAYSGDYMEPEKPGAPLLPPPPQNSVPHYAEADIVTLQGVTGGNTYAVPALPPGAVGDGPPRVDFPRSRLRFKEKLGEGQFGEVHLCEVDSPQDLVSLDFPLNVRKGHPLLVAVKILRPDATKNARNDFLKEVKIMSRLKDPNIIRLLGVCVQDDPLCMITDYMENGDLNQFLSAHQLEDKAAEGAPGDGQAAQGPTISYPMLLHVAAQIASGMRYLATLNFVHRDLATRNCLVGENFTIKIADFGMSRNLYAGDYYRVQGRAVLPIRWMAWECILMGKFTTASDVWAFGVTLWEVLMLCRAQPFGQLTDEQVIENAGEFFRDQGRQVYLSRPPACPQGLYELMLRCWSRESEQRPPFSQLHRFLAEDALNTV
